Laboratory results taken from paper PMC11574045, “A cofactor-induced repressive type of transcription factor condensation can be induced by synthetic peptides to suppress tumorigenesis” (The EMBO Journal, 2024).

System: HEK293FT cells transfected with TF library
Assay: Screening of TF condensates based on fluorescent puncta
Format: cell-based
Settings: Figure 1B numerical data; TF library screen, one value per transcriptional factor
Outline: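 TF plasmids (final 1.6 μg/ml) reverse-transfected with PEI (4.8 μg/ml) into HEK293FT cells; after 60 h, cells cultured ±glucose for 12 h, fixed in 4% PFA and immunostained for Flag or GAL4 tags with Alexa 488 secondaries. Puncta scored by automated imaging of 50 random fields per well.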

Molecule | Z score of condensed fraction
PRDM8 (protein, UniProt Q9NQV8 1-689, looked up) PR domain zinc finger protein …: MEDTGIQRGIWDGDAKAVQQCLTDIFTSVYTTCDIPENAIFGPCVLSHTSLYDSIAFIALKSTDKRTVPYIFRVDTSAANGSSEGLMWLRLVQSARDKEEQNLEAYIKNGQLFYRSLRRIAKDEELLVWYGKELTELLLLCPSRSHNKMNGSSPYTCLECSQRFQFEFPYVAHLRFRCPKRLHSADISPQDEQGGGVGTKDHGGGGGGGKDQQQQQQEAPLGPGPKFCKAGPLHHYPSPSPESSNPSAAAGGSSAKPSTDFHNLARELENSRGGSSCSPAQSLSSGSGSGGGGGHQEAELSPDGIATGGGKGKRKFPEEAAEGGGGAGLVGGRGRFVERPLPASKEDLVCTPQQYRASGSYFGLEENGRLFAPPSPETGEAKRSAFVEVKKAARAASLQEEGTADGAGVASEDQDAGGGGGSSTPAAASPVGAEKLLAPRPGGPLPSRLEGGSPARGSAFTSVPQLGSAGSTSGGGGTGAGAAGGAGGGQGAASDERKSAFSQPARSFSQLSPLVLGQKLGALEPCHPADGVGPTRLYPAAADPLAVKLQGAADLNGGCGSLPSGGGGLPKQSPFLYATAFWPKSSAAAAAAAAAAAAGPLQLQLPSALTLLPPSFTSLCLPAQNWCAKCNASFRMTSDLVYHMRSHHKKEYAMEPLVKRRREEKLKCPICNESFRERHHLSRHMTSHN | -0.8362
PRDM16 (protein, UniProt Q9HAZ2 1-1276, looked up) Histone-lysine …: MRSKARARKLAKSDGDVVNNMYEPNRDLLASHSAEDEAEDSAMSPIPVGPPSPFPTSEDFTPKEGSPYEAPVYIPEDIPIPADFELRESSIPGAGLGVWAKRKMEAGERLGPCVVVPRAAAKETDFGWEQILTDVEVSPQEGCITKISEDLGSEKFCVDANQAGAGSWLKYIRVACSCDDQNLTMCQISEQIYYKVIKDIEPGEELLVHVKEGVYPLGTVPPGLDEEPTFRCDECDELFQSKLDLRRHKKYTCGSVGAALYEGLAEELKPEGLGGGSGQAHECKDCERMFPNKYSLEQHMVIHTEEREYKCDQCPKAFNWKSNLIRHQMSHDSGKRFECENCVKVFTDPSNLQRHIRSQHVGARAHACPDCGKTFATSSGLKQHKHIHSTVKPFICEVCHKSYTQFSNLCRHKRMHADCRTQIKCKDCGQMFSTTSSLNKHRRFCEGKNHYTPGGIFAPGLPLTPSPMMDKAKPSPSLNHASLGFNEYFPSRPHPGSLPFSTAPPTFPALTPGFPGIFPPSLYPRPPLLPPTSLLKSPLNHTQDAKLPSPLGNPALPLVSAVSNSSQGTTAAAGPEEKFESRLEDSCVEKLKTRSSDMSDGSDFEDVNTTTGTDLDTTTGTGSDLDSDVDSDPDKDKGKGKSAEGQPKFGGGLAPPGAPNSVAEVPVFYSQHSFFPPPDEQLLTATGAAGDSIKAIASIAEKYFGPGFMGMQEKKLGSLPYHSAFPFQFLPNFPHSLYPFTDRALAHNLLVKAEPKSPRDALKVGGPSAECPFDLTTKPKDVKPILPMPKGPSAPASGEEQPLDLSIGSRARASQNGGGREPRKNHVYGERKLGAGEGLPQVCPARMPQQPPLHYAKPSPFFMDPIYSRVEKRKVTDPVGALKEKYLRPSPLLFHPQMSAIETMTEKLESFAAMKADSGSSLQPLPHHPFNFRSPPPTLSDPILRKGKERYTCRYCGKIFPRSANLTRHLRTHTGEQPYRCKYCDRSFSISSNLQRHVRNIHNKEKPFKCHLCNRCFGQQTNLDRHLKKHEHENAPVSQHPGVLTNHLGTSASSPTSESDNHALLDEKEDSYFSEIRNFIANSEMNQASTRTEKRADMQIVDGSAQCPGLASEKQEDVEEEDDDDLEEDDEDSLAGKSQDDTVSPAPEPQAAYEDEEDEEPAASLAVGFDHTRRCAEDHEGGLLALEPMPTFGKGLDLRRAAEEAFEVKDVLNSTLDSEALKHTLCRQAKNQAYAMMLSLSEDTPLHTPSQGSLDAWLKVTGATSESGAFHPINHL | -0.4468
PRDM10 (protein, UniProt Q9NQV6 1-1147, looked up) PR domain zinc finger protein …: MDSKDESSHVWPTSAEHEQNAAQVHFVPDTGTVAQIVYTDDQVRPPQQVVYTADGASYTSVDGPEHTLVYIHPVEAAQTLFTDPGQVAYVQQDATAQQASLPVHNQVLPSIESVDGSDPLATLQTPLGRLEAKEEEDEDEDEDTEEDEEEDGEDTDLDDWEPDPPRPFDPHDLWCEECNNAHASVCPKHGPLHPIPNRPVLTRARASLPLVLYIDRFLGGVFSKRRIPKRTQFGPVEGPLVRGSELKDCYIHLKVSLDKGDRKERDLHEDLWFELSDETLCNWMMFVRPAQNHLEQNLVAYQYGHHVYYTTIKNVEPKQELKVWYAASYAEFVNQKIHDISEEERKVLREQEKNWPCYECNRRFISSEQLQQHLNSHDEKLDVFSRTRGRGRGRGKRRFGPGRRPGRPPKFIRLEITSENGEKSDDGTQDLLHFPTKEQFDEAEPATLNGLDQPEQTTIPIPQLPQETQSSLEHEPETHTLHLQPQHEESVVPTQSTLTADDMRRAKRIRLELQNAALQHLFIRKSFRPFKCLQCGKAFREKDKLDQHLRFHGREGNCPLTCDLCNKGFISSTSLESHMKLHSDQKTYSCIFCPESFDRLDLLKDHVAIHINDGYFTCPTCKKRFPDFIQVKKHVRSFHSEKIYQCTECDKAFCRPDKLRLHMLRHSDRKDFLCSTCGKQFKRKDKLREHMQRMHNPEREAKKADRISRSKTFKPRITSTDYDSFTFKCRLCMMGFRRRGMLVNHLSKRHPDMKIEEVPELTLPIIKPNRDYFCQYCDKVYKSASKRKAHILKNHPGAELPPSIRKLRPAGPGEPDPMLSTHTQLTGTIATPPVCCPHCSKQYSSKTKMVQHIRKKHPEFAQLSNTIHTPLTTAVISATPAVLTTDSATGETVVTTDLLTQAMTELSQTLTTDYRTPQGDYQRIQYIPVSQSASGLQQPQHIQLQVVQVASATSPHQSQQSTVDVGQLHDPQPYPQHAIQVQHIQVSGQPLSPSAQQAQQGLSPSHIQGSSSTQGQALQQQQQQQQNSSVQHTYLPSAWNSFRGYSSEIQMMTLPPGQFVITDSGVATPVTTGQVKAVTSGHYVLSESQSELEEKQTSALSGGVQVEPPAHSDSLDPQTNSQQQTTQYIITTTTNGNGSSEVHITKP | 0.3409
PRMT2 (protein, UniProt P55345 1-433, looked up) Protein arginine …: MATSGDCPRSESQGEEPAECSEAGLLQEGVQPEEFVAIADYAATDETQLSFLRGEKILILRQTTADWWWGERAGCCGYIPANHVGKHVDEYDPEDTWQDEEYFGSYGTLKLHLEMLADQPRTTKYHSVILQNKESLTDKVILDVGCGTGIISLFCAHYARPRAVYAVEASEMAQHTGQLVLQNGFADIITVYQQKVEDVVLPEKVDVLVSEWMGTCLLFEFMIESILYARDAWLKEDGVIWPTMAALHLVPCSADKDYRSKVLFWDNAYEFNLSALKSLAVKEFFSKPKYNHILKPEDCLSEPCTILQLDMRTVQISDLETLRGELRFDIRKAGTLHGFTAWFSVHFQSLQEGQPPQVLSTGPFHPTTHWKQTLFMMDDPVPVHTGDVVTGSVVLQRNPVWRRHMSVALSWAVTSRQDPTSQKVGEKVFPIWR | 0.936
PROX1 (protein, UniProt P48437 1-737, looked up) Prospero homeobox protein 1: MPDHDSTALLSRQTKRRRVDIGVKRTVGTASAFFAKARATFFSAMNPQGSEQDVEYSVVQHADGEKSNVLRKLLKRANSYEDAMMPFPGATIISQLLKNNMNKNGGTEPSFQASGLSSTGSEVHQEDICSNSSRDSPPECLSPFGRPTMSQFDVDRLCDEHLRAKRARVENIIRGMSHSPSVALRGNENEREMAPQSVSPRESYRENKRKQKLPQQQQQSFQQLVSARKEQKREERRQLKQQLEDMQKQLRQLQEKFYQVYDSTDSENDEDGDLSEDSMRSEILDARAQDSVGRSDNEMCELDPGQFIDRARALIREQEMAENKPKREGSNKERDHGPNSLQPEGKHLAETLKQELNTAMSQVVDTVVKVFSAKPSRQVPQVFPPLQIPQARFAVNGENHNFHTANQRLQCFGDVIIPNPLDTFGSVQMPSSTDQTEALPLVVRKNSSEQSASGPATGGHHQPLHQSPLSATAGFTTPSFRHPFPLPLMAYPFQSPLGAPSGSFSGKDRASPESLDLTRDTTSLRTKMSSHHLSHHPCSPAHPPSTAEGLSLSLIKSECGDLQDMSDISPYSGSAMQEGLSPNHLKKAKLMFFYTRYPSSNMLKTYFSDVKFNRCITSQLIKWFSNFREFYYIQMEKYARQAINDGVTSTEELSITRDCELYRALNMHYNKANDFEVPERFLEVAQITLREFFNAIIAGKDVDPSWKKAIYKVICKLDSEVPEIFKSPNCLQELLHE | 0.7937
PRDM12 (protein, UniProt Q9H4Q4 1-367, looked up) PR domain zinc finger protein …: MMGSVLPAEALVLKTGLKAPGLALAEVITSDILHSFLYGRWRNVLGEQLFEDKSHHASPKTAFTAEVLAQSFSGEVQKLSSLVLPAEVIIAQSSIPGEGLGIFSKTWIKAGTEMGPFTGRVIAPEHVDICKNNNLMWEVFNEDGTVRYFIDASQEDHRSWMTYIKCARNEQEQNLEVVQIGTSIFYKAIEMIPPDQELLVWYGNSHNTFLGIPGVPGLEEDQKKNKHEDFHPADSAAGPAGRMRCVICHRGFNSRSNLRSHMRIHTLDKPFVCRFCNRRFSQSSTLRNHVRLHTGERPYKCQVCQSAYSQLAGLRAHQKSARHRPPSTALQAHSPALPAPHAHAPALAAAAAAAAAAAAHHLPAMVL | -1.027
PRKRA (protein, UniProt O75569 1-313, looked up) Interferon-inducible …: MSQSRHRAEAPPLEREDSGTFSLGKMITAKPGKTPIQVLHEYGMKTKNIPVYECERSDVQIHVPTFTFRVTVGDITCTGEGTSKKLAKHRAAEAAINILKANASICFAVPDPLMPDPSKQPKNQLNPIGSLQELAIHHGWRLPEYTLSQEGGPAHKREYTTICRLESFMETGKGASKKQAKRNAAEKFLAKFSNISPENHISLTNVVGHSLGCTWHSLRNSPGEKINLLKRSLLSIPNTDYIQLLSEIAKEQGFNITYLDIDELSANGQYQCLAELSTSPITVCHGSGISCGNAQSDAAHNALQYLKIIAERK | 0.8928
BANP (protein, UniProt Q8N9N5 1-519, looked up) Protein BANP: MMSEHDLADVVQIAVEDLSPDHPVVLENHVVTDEDEPALKRQRLEINCQDPSIKTICLRLDSIEAKLQALEATCKSLEEKLDLVTNKQHSPIQVPMVAGSPLGATQTCNKVRCVVPQTTVILNNDRQNAIVAKMEDPLSNRAPDSLENVISNAVPGRRQNTIVVKVPGQEDSHHEDGESGSEASDSVSSCGQAGSQSIGSNVTLITLNSEEDYPNGTWLGDENNPEMRVRCAIIPSDMLHISTNCRTAEKMALTLLDYLFHREVQAVSNLSGQGKHGKKQLDPLTIYGIRCHLFYKFGITESDWYRIKQSIDSKCRTAWRRKQRGQSLAVKSFSRRTPNSSSYCPSEPMMSTPPPASELPQPQPQPQALHYALANAQQVQIHQIGEDGQVQVGHLHIAQVPQGEQVQITQDSEGNLQIHHVGQDGQLLEATRIPCLLAPSVFKASSGQVLQGAQLIAVASSDPAAAGVDGSPLQGSDIQVQYVQLAPVSDHTAGAQTAEALQPTLQPEMQLEHGAIQIQ | 1.258
